Like-named read-outs stand apart in the source and are kept apart here.

Assay [1] deals with recombinant human CD47 (human) (UniProt Q08722). In words: SPR, Biacore X100, antibody captured on Protein A chip, CD47 as analyte. A general note: In SPR one partner is held on a chip, and binding of the other changes the refractive index at the surface.
In assay [2] the target is recombinant human CD47-Fc protein (ACROBiosystems, catalog number CD7-H52A5) (human) (UniProt Q08722). Briefly: blocking ELISA: plate coated with human CD47-Fc, biotin-labelled SIRPα as the blocked ligand, falling OD450 curve; the sheet labels the half-maximal value EC50. A general note: In an ELISA, binding on a coated surface is turned into a signal by an enzyme label.
Assay [3] has as its target recombinant human CD47 (human) (UniProt Q08722). Briefly: ELISA, plate coated with 1 µg/mL recombinant human CD47, OD450.
In assay [4] the target is recombinant human CD47-Fc protein (ACROBiosystems, catalog number CD7-H52A5) (human) (UniProt Q08722). In words: blocking ELISA: plate coated with human CD47-Fc, 2 nM biotin-labelled SIRPα as the blocked ligand, falling OD450 curve; the sheet labels the half-maximal value EC50.
In assay [5] the target is recombinant human CD47 (human) (UniProt Q08722). In words: SPR, Biacore X100, antibody captured on Protein A chip, CD47 as analyte. This is another data set of the same source.
Assay [6] shares this target. In words: ELISA, plate coated with recombinant human CD47, OD450.

Sequence of recombinant human CD47 (human) (Q08722 19-139 limits assumed): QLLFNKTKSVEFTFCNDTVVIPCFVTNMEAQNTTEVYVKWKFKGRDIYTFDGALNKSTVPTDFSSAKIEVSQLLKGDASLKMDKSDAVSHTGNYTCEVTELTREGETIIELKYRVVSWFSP
Sequence of recombinant human CD47-Fc protein (ACROBiosystems, catalog number CD7-H52A5) (human) (Q08722 19-139 limits assumed): as above

B1: control CC-90002 (a patent sequence from WO2016109415) (antibody, from another filing, V domains shown)
VH: QMQLVQSGAEVKKTGSSVKVSCKASGFNIKDYYLHWVRQAPGQALEWMGWIDPDQGDTEYAQKFQDRVTITRDRSMSTAYMELSSLRSEDTAMYYCNAAYGSSSYPMDYWGQGTTVTV
VL: NIQMTQSPSAMSASVGDRVTITCKASQDIHRYLSWFQQKPGKVPKHLIYRANRLVSGVPSRFSGSGSGTEFTLTISSLQPEDFATYYCLQYDEFPYTFGGGTKVEIK
For the molecule B1, the Kd (usually the concentration at which binding is half-saturated) in assay [1] turned out to be 0.857 nM; in assay [5], 1.16 nM. Besides, the values for the koff in assay [1] and in assay [5] were 0.00135 s⁻¹ and 0.00176 s⁻¹, respectively. For the same molecule, the results for the on-rate constant (kon) in assay [1] and in assay [5] were 1.57e+06 M⁻¹ s⁻¹ and 1.52e+06 M⁻¹ s⁻¹, respectively. The IC50 (usually the point on the concentration scale where inhibition reaches its midpoint) in assay [2] amounted to 0.774 nM; in assay [4], 1.43 nM. Besides, the EC50 (usually the concentration giving half of the maximal effect) in assay [3] is 0.058 nM; in assay [6] it was 0.033 nM.
